For 52 sequences, protein stability index results are on record in the supplement of paper PMC10567573.

The nature of the data set: protein stability index of a GFP-peptide fusion (GPS, HEK-293T) (PSI 1-6); higher = more stable.
Setting [1] is: treatment: DMSO, c terminus: a fixed tail appended.
Where [2] appears, read: treatment: MLN4924 1 uM, 8 h, c terminus: a fixed tail appended.
[3] abbreviates: treatment: DMSO, c terminus: native.
[4] abbreviates: treatment: MLN4924 1 uM, 8 h, c terminus: native.

± gives the standard deviation.
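Further: 24-mer peptide tiles fused after GFP, lentivirally expressed, FACS-sorted into six equal bins by GFP/DsRed ratio, decoded by Illumina sequencing, PSI is the read-weighted mean bin number.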

As for VASCMHRQETVDCLKKFNARRKLK [CAMK2A], the protein stability index runs as follows: under setting [1], 4.05 ± 0.69; under setting [2], 4.03 ± 0.26.

On to VCYHYYADWFMSLGVGLLTFASLE [TMEM40], for which the protein stability index under setting [1] was 3.04 ± 0.18 and the protein stability index under setting [2] stood at 3.08 ± 0.18.

For VDISVPPTTDGQKPNKLQCCQNL [RAB11B], the protein stability index reads like this: under setting [3], 4.77 ± 0.31; under setting [4], 4.93 ± 0.091.

Consider VEMLCDQAWGSMLEVPAGSRLNLT [CCDC3], for which the protein stability index runs as follows: under setting [1], 2.75 ± 0.28; under setting [2], 2.96 ± 0.31.

Regarding VEQMTKEERQAAQNECQVLKLLNH [NEK8], the protein stability index reads like this: under setting [1], 4.59 ± 0.18; under setting [2], 4.63 ± 0.15.

Consider VEQPKGTEVVRDAVRKLKFARHIK [GULP1], for which the protein stability index amounted to 3.7 ± 0.11 under setting [1] and 3.77 ± 0.16 under setting [2].

With VERAQQVAVQEQEIARREKELEAR [FLOT1], the protein stability index turned out to be 5.27 ± 0.36 under setting [1] and 5.3 ± 0.18 under setting [2].

In the case of VERPHSGLPGKVFACLSVLFVTVT [KCNG1], the protein stability index is, setting by setting: under setting [1], 3.03 ± 0.73; under setting [2], 2.52 ± 0.38.

For the sequence VFDNAIRAALISRRHLQFWKSHLK [RHOBTB1], the protein stability index is 2.06 ± 0.63 under setting [1] and 2.4 ± 0.29 under setting [2].

With VFSYFLATDMISIFEPPVRNSGII [EFHC1], the protein stability index is 3.65 ± 0.91 under setting [1] and 3.14 ± 0.67 under setting [2].

In the case of VGELLPCKICGRTFFPVALKKHGP [ZC2HC1A], the protein stability index under setting [1] was found to be 2.84 ± 0.51 and the protein stability index under setting [2] worked out at 2.57 ± 0.19.

Consider VGSGGATSGKLLLEADELCDDGGD [ZBTB22], for which the protein stability index runs as follows: under setting [1], 5.56 ± 0.22; under setting [2], 5.55 ± 0.22.

Consider VHQRGSSTAKKEDINLSVRKLLNR [TRIP13], for which the protein stability index reads like this: under setting [1], 3.72 ± 0.31; under setting [2], 3.87 ± 0.25.

As for VKDDDRLTFHRHPVAQSTDGIRGK [SPSB4], the protein stability index runs as follows: under setting [1], 4.89 ± 0.25; under setting [2], 4.83 ± 0.23.

Take VKELGTVMRMLGQTPTKEELDAII [TNNC2]: the protein stability index runs as follows: under setting [1], 3.02 ± 0.29; under setting [2], 3.04 ± 0.94.

As for VKEPCSLPMLSVDMENKENGSVGV [SAMD13], the protein stability index by setting is: under setting [1], 5 ± 0.19; under setting [2], 5.11 ± 0.21.

In the case of VKNDRDRVGHKSIPMRNLRARPAK [SERPINB5], the protein stability index is, setting by setting: under setting [1], 3.98 ± 0.35; under setting [2], 4.4 ± 0.11.

For VKTRLEQEIATYRRLLEGEDAHLT [KRT17], the protein stability index reads like this: under setting [1], 3.62 ± 0.14; under setting [2], 3.77 ± 0.3.

For VLGFLIENFKGLAIPYLEHIIHVW [VPS39], the protein stability index by setting is: under setting [1], 2.36 ± 0.46; under setting [2], 2.5 ± 0.31.

As for VLMIAIQLISRMEYVHSKNLIYRD [CSNK1G3], the protein stability index was 2.86 ± 0.13 under setting [1] and 2.72 ± 0.44 under setting [2].

Regarding VLQENYTHLPKADIFALALTVVCA [WEE1], the protein stability index amounted to 2.69 ± 0.85 under setting [1] and 2.38 ± 0.27 under setting [2].

With VLQIDNAKLAADDFRTKYETELSL [KRT36], the protein stability index is 3.54 ± 0.37 under setting [1] and 3.49 ± 0.14 under setting [2].

For the sequence VLVLTKPLGTQVAVNAHQWLDNPE [SEPHS2], the protein stability index was 2.4 ± 0.18 under setting [1] and 2.19 ± 0.37 under setting [2].

For VLYALRSFDYEQFHELQMQVTASD [PCDHGA10], the protein stability index came out at 2.26 ± 0.12 under setting [1] and 2.22 ± 0.27 under setting [2].

In the case of VMFQRRYYKPGLLMMCFILPTLVP [SCD], the protein stability index reads like this: under setting [1], 3.51 ± 0.77; under setting [2], 2.72 ± 0.71.

Turning to VNPNGQKQQLVDAFLKLAKQRSVC [FAN1], the protein stability index reads like this: under setting [1], 3.16 ± 0.27; under setting [2], 2.92 ± 0.32.

Take VNQYVIRPGPSASAASSAAAGEPL [RNF208]: the protein stability index is, setting by setting: under setting [1], 3.88 ± 0.22; under setting [2], 3.96 ± 0.23.

For VNSVCWASLNHLDSHILLCLMGLA [DCAF4], the protein stability index worked out at 2.51 ± 0.63 under setting [1] and 2.69 ± 0.36 under setting [2].

As for VNVGTTALWKHLKSMHREELEKSG [ZBED2], the protein stability index under setting [1] turned out to be 3.65 ± 0.24 and the protein stability index under setting [2] stood at 3.48 ± 0.23.

Regarding VPIPTVNQYLYFLFAPTLIYRDSY [SOAT1], the protein stability index by setting is: under setting [1], 3.32 ± 0.3; under setting [2], 3.24 ± 0.24.

Regarding VQSYMEHYCNSSTDRRVLLMFLDI [SPACA9], the protein stability index stood at 2.78 ± 0.38 under setting [1] and 2.71 ± 0.56 under setting [2].

In the case of VRKREAPAPEAESKQTEKDPGVQE [EFHC1], the protein stability index runs as follows: under setting [1], 5.47 ± 0.27; under setting [2], 5.61 ± 0.34.

On to VSLVTAELSKDAQASAAPAAPLPE [SLC29A1], for which the protein stability index runs as follows: under setting [1], 4.44 ± 0.18; under setting [2], 4.47 ± 0.16.

In the case of VTGETRVLSSTTLLPRQPLPLGIK [PALM], the protein stability index was 3.66 ± 0.35 under setting [1] and 3.63 ± 0.22 under setting [2].

Regarding VTLLVRGVCYSESQSSASQPRLSY [CLCN6], the protein stability index was 2.83 ± 0.41 under setting [1] and 2.29 ± 0.6 under setting [2].

VTRQPRNLQDLCRIKIRQCIGLQN [ASB7] gave a protein stability index under setting [1] of 3.4 ± 0.56 and a protein stability index under setting [2] of 3.35 ± 0.39.

VVGAKKIYAHRVILSACSPYFRAM [KLHL20] yielded a protein stability index under setting [1] of 2.78 ± 0.26 and a protein stability index under setting [2] of 2.41 ± 0.84.

As for VYYIFERLCAPLFRNIKQEPFSAR [SOAT1], the protein stability index stood at 2.5 ± 0.71 under setting [1] and 2.61 ± 0.5 under setting [2].

As for WALGVCNNSWIRKNSTMVNSEDIF [TRIM43], the protein stability index stood at 2.03 ± 0.52 under setting [1] and 2.12 ± 0.31 under setting [2].

WATIEGLVELLQPFKQVAEMLSAS [ZBED1]: the protein stability index by setting is: under setting [1], 3.01 ± 0.76; under setting [2], 2.94 ± 0.8.

Regarding WDLNMENRPIETYQVHDYLRSKLC [PPP2R2B], the protein stability index was found to be 2.65 ± 0.34 under setting [1] and 2.72 ± 0.29 under setting [2].

WEEEKALWVEERALLEGEKALWED [CCDC70]: the protein stability index by setting is: under setting [1], 5.07 ± 0.28; under setting [2], 5.22 ± 0.13.

With WEHSAPQRLPRSAPPGSLVTKVTA [PCDHGC5], the protein stability index runs as follows: under setting [1], 3.84 ± 0.092; under setting [2], 4.02 ± 0.18.

As for WIGKQLPTPVGAVQQDPALSSNRE [CSNK1G3], the protein stability index runs as follows: under setting [1], 4.11 ± 0.19; under setting [2], 4.48 ± 0.26.

WKDIIHNPQALSPQFTGILQLLQS [INTS3]: the protein stability index runs as follows: under setting [1], 2.11 ± 0.34; under setting [2], 2.14 ± 0.23.

As to WKVRYDTFIVSCKFSPDGKYVVSG [WDR88], the protein stability index turned out to be 2.31 ± 0.45 under setting [1] and 2.49 ± 0.14 under setting [2].

WLDNPERWNKVKMVVSREEVELAY [SEPHS2]: the protein stability index under setting [1] worked out at 2.87 ± 0.31 and the protein stability index under setting [2] was 2.46 ± 0.31.

As for WLHCVCVVGFDLELGQAVEVIYPQ [DENND6A], the protein stability index came out at 2.66 ± 0.95 under setting [1] and 2.46 ± 0.085 under setting [2].

For WQVLCMLSLCCWGWVSGQLRYSVV [PCDHGC5], the protein stability index under setting [1] came out at 3.24 ± 0.69 and the protein stability index under setting [2] is 3.04 ± 0.35.

For WRYVSSLPQPLAAHAGAVHNGKIY [KLHL14], the protein stability index is, setting by setting: under setting [1], 2.51 ± 0.26; under setting [2], 2.73 ± 0.078.

Regarding YAKLAAVAVFFIMLIVYVRFWWL [SEC22B], the protein stability index by setting is: under setting [3], 2.52 ± 0.081; under setting [4], 2.63 ± 0.075.

Sequence YAKVKEFIVDILQFLDIGPDVTRV [MATN2] had a protein stability index under setting [1] of 3.84 ± 0.32 and a protein stability index under setting [2] of 3.81 ± 0.084.
